Positions count from the first letter of the chain named.
molecular target: Inadl_3, Q8NI35; assay: holdup assay; set-up: key: below the threshold = too weak to quantify, mostly under pKd 3.1 to 4; details: plain residues with an end cap or a label only (N-terminal biotin on a linker: ado-ado)
Sequence (Q8NI35 359-469): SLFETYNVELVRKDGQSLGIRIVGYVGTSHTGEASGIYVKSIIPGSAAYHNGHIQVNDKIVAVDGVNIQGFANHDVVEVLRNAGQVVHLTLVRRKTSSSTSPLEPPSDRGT

Row | Binder | pKd
1 | GDHLDRRVVL [VAC14, Q08AM6] | below the threshold
2 | KSTTRSSSSC [NDE1, Q9NXR1;Q9NXR1-2] | below the threshold

molecular target: FRMPD2_2, Q68DX3; assay: holdup assay; set-up: key: below the threshold = too weak to quantify, mostly under pKd 3.1 to 4; details: plain residues with an end cap or a label only (N-terminal biotin on a linker: ado-ado)
Sequence (Q68DX3 944-1038): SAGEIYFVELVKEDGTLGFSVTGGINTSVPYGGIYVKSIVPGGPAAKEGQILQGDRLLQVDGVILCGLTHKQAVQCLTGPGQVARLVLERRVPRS

Row | Binder | pKd
3 | GDHLDRRVVL [VAC14, Q08AM6] | below the threshold
4 | KSTTRSSSSC [NDE1, Q9NXR1;Q9NXR1-2] | below the threshold

molecular target: T1, RAPGEF6, Q8TEU7; assay: holdup assay; set-up: key: below the threshold = too weak to quantify, mostly under pKd 3.1 to 4; details: plain residues with an end cap or a label only (N-terminal biotin on a linker: ado-ado)
T1 sequence (Q8TEU7 525-625, limits assumed, looked up): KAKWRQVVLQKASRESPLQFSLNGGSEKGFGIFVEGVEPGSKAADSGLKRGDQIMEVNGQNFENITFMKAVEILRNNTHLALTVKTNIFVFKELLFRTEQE

Row | Binder | pKd
5 | GDHLDRRVVL [VAC14, Q08AM6] | below the threshold
6 | KSTTRSSSSC [NDE1, Q9NXR1;Q9NXR1-2] | below the threshold

molecular target: T2, LIN7A, O14910; assay: holdup assay; set-up: key: below the threshold = too weak to quantify, mostly under pKd 3.1 to 4; details: plain residues with an end cap or a label only (N-terminal biotin on a linker: ado-ado)
T2 sequence (O14910 103-200, limits assumed, looked up): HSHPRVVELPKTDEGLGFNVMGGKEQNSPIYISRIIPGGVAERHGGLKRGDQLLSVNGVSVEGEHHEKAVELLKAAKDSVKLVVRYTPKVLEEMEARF

Row | Binder | pKd
7 | GDHLDRRVVL [VAC14, Q08AM6] | below the threshold
8 | KSTTRSSSSC [NDE1, Q9NXR1;Q9NXR1-2] | below the threshold

molecular target: T3, FRMPD1, Q5SYB0; assay: holdup assay; set-up: key: below the threshold = too weak to quantify, mostly under pKd 3.1 to 4; details: plain residues with an end cap or a label only (N-terminal biotin on a linker: ado-ado)
T3 sequence (Q5SYB0 52-145, limits assumed, looked up): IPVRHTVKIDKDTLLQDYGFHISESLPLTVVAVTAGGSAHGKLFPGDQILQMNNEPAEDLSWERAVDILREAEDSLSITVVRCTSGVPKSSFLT

Row | Binder | pKd
9 | GDHLDRRVVL [VAC14, Q08AM6] | below the threshold
10 | KSTTRSSSSC [NDE1, Q9NXR1;Q9NXR1-2] | below the threshold

molecular target: SCRIB_2, Q14160; assay: holdup assay; set-up: key: below the threshold = too weak to quantify, mostly under pKd 3.1 to 4; details: plain residues with an end cap or a label only (N-terminal biotin on a linker: ado-ado)
Sequence (Q14160 857-960): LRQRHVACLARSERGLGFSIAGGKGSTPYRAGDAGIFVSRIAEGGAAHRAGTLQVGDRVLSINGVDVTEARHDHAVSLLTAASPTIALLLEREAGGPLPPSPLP

Row | Binder | pKd
11 | GDHLDRRVVL [VAC14, Q08AM6] | 3.64
12 | KSTTRSSSSC [NDE1, Q9NXR1;Q9NXR1-2] | below the threshold

molecular target: SNX27, Q96L92; assay: holdup assay; set-up: key: below the threshold = too weak to quantify, mostly under pKd 3.1 to 4; details: plain residues with an end cap or a label only (N-terminal biotin on a linker: ado-ado)

Row | Binder | pKd
13 | GDHLDRRVVL [VAC14, Q08AM6] | below the threshold
14 | KSTTRSSSSC [NDE1, Q9NXR1;Q9NXR1-2] | below the threshold

molecular target: T4, LNX2_2, Q8N448; assay: holdup assay; set-up: key: below the threshold = too weak to quantify, mostly under pKd 3.1 to 4; details: plain residues with an end cap or a label only (N-terminal biotin on a linker: ado-ado)
T4 sequence (Q8N448 334-432, limits assumed, looked up): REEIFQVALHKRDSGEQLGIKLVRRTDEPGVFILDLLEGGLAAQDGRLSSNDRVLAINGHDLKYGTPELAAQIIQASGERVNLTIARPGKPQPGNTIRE

Row | Binder | pKd
15 | GDHLDRRVVL [VAC14, Q08AM6] | 3.48
16 | KSTTRSSSSC [NDE1, Q9NXR1;Q9NXR1-2] | below the threshold

molecular target: T5, SIPA1L2, Q9P2F8; assay: holdup assay; set-up: key: below the threshold = too weak to quantify, mostly under pKd 3.1 to 4; details: plain residues with an end cap or a label only (N-terminal biotin on a linker: ado-ado)
T5 sequence (Q9P2F8 945-1036, limits assumed, looked up): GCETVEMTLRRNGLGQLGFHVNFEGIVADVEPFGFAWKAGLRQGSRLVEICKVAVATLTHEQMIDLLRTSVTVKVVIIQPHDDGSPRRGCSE

Row | Binder | pKd
17 | GDHLDRRVVL [VAC14, Q08AM6] | below the threshold
18 | KSTTRSSSSC [NDE1, Q9NXR1;Q9NXR1-2] | below the threshold

molecular target: LNX1_2, Q8TBB1; assay: holdup assay; set-up: key: below the threshold = too weak to quantify, mostly under pKd 3.1 to 4; details: plain residues with an end cap or a label only (N-terminal biotin on a linker: ado-ado)
Sequence (Q8TBB1 371-470): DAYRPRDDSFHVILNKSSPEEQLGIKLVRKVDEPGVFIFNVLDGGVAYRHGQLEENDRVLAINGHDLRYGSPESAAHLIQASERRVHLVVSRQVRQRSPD

Row | Binder | pKd
19 | GDHLDRRVVL [VAC14, Q08AM6] | below the threshold
20 | KSTTRSSSSC [NDE1, Q9NXR1;Q9NXR1-2] | below the threshold

molecular target: T6, SYNJ2BP, P57105; assay: holdup assay; set-up: key: below the threshold = too weak to quantify, mostly under pKd 3.1 to 4; details: plain residues with an end cap or a label only (N-terminal biotin on a linker: ado-ado)
T6 sequence (P57105 8-110, limits assumed, looked up): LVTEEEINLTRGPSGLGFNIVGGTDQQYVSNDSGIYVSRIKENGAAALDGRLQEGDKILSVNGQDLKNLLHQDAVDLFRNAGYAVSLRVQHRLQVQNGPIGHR

Row | Binder | pKd
21 | GDHLDRRVVL [VAC14, Q08AM6] | below the threshold

molecular target: T7, TIAM2, Q8IVF5; assay: holdup assay; set-up: key: below the threshold = too weak to quantify, mostly under pKd 3.1 to 4; details: plain residues with an end cap or a label only (N-terminal biotin on a linker: ado-ado)
T7 sequence (Q8IVF5 885-986, limits assumed, looked up): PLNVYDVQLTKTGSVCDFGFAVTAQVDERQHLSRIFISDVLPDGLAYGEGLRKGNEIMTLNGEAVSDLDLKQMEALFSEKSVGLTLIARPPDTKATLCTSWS

Row | Binder | pKd
22 | GDHLDRRVVL [VAC14, Q08AM6] | below the threshold

molecular target: DLG1_2, Q12959; assay: holdup assay; set-up: key: below the threshold = too weak to quantify, mostly under pKd 3.1 to 4; details: plain residues with an end cap or a label only (N-terminal biotin on a linker: ado-ado)
Sequence (Q12959 314-412): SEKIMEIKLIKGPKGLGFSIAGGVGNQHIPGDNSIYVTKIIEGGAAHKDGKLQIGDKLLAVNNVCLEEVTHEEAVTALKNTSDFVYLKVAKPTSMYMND

Row | Binder | pKd
23 | GDHLDRRVVL [VAC14, Q08AM6] | 3.98
24 | KSTTRSSSSC [NDE1, Q9NXR1;Q9NXR1-2] | below the threshold

molecular target: HTRA1, Q92743; assay: holdup assay; set-up: key: below the threshold = too weak to quantify, mostly under pKd 3.1 to 4; details: plain residues with an end cap or a label only (N-terminal biotin on a linker: ado-ado)
Sequence (Q92743 360-477): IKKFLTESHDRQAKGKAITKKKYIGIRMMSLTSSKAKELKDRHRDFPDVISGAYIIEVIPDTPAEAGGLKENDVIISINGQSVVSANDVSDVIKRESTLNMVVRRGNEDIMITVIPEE

Row | Binder | pKd
25 | GDHLDRRVVL [VAC14, Q08AM6] | 4.25
26 | KSTTRSSSSC [NDE1, Q9NXR1;Q9NXR1-2] | below the threshold

molecular target: PTPN3, P26045; assay: holdup assay; set-up: key: below the threshold = too weak to quantify, mostly under pKd 3.1 to 4; details: plain residues with an end cap or a label only (N-terminal biotin on a linker: ado-ado)
Sequence (P26045 505-587): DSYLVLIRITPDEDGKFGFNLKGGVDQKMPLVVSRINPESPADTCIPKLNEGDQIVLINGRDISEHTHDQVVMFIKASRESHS

Row | Binder | pKd
27 | GDHLDRRVVL [VAC14, Q08AM6] | 3.92

molecular target: DLG4_2, P78352; assay: holdup assay; set-up: key: below the threshold = too weak to quantify, mostly under pKd 3.1 to 4; details: plain residues with an end cap or a label only (N-terminal biotin on a linker: ado-ado)
Sequence (P78352 155-259): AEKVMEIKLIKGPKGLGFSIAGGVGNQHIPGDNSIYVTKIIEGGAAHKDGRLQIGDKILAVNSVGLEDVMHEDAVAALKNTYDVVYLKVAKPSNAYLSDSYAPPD

Row | Binder | pKd
28 | GDHLDRRVVL [VAC14, Q08AM6] | below the threshold
29 | KSTTRSSSSC [NDE1, Q9NXR1;Q9NXR1-2] | below the threshold

molecular target: T8, DFNB31_1, Q9P202; assay: holdup assay; set-up: key: below the threshold = too weak to quantify, mostly under pKd 3.1 to 4; details: plain residues with an end cap or a label only (N-terminal biotin on a linker: ado-ado)
T8 sequence (Q9P202 135-233, limits assumed, looked up): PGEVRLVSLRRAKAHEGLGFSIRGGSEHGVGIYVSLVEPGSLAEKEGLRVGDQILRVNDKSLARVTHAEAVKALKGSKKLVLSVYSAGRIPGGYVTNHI

Row | Binder | pKd
30 | GDHLDRRVVL [VAC14, Q08AM6] | below the threshold
31 | KSTTRSSSSC [NDE1, Q9NXR1;Q9NXR1-2] | below the threshold

molecular target: T9, NHERF3_4, Q5T2W1; assay: holdup assay; set-up: key: below the threshold = too weak to quantify, mostly under pKd 3.1 to 4; details: plain residues with an end cap or a label only (N-terminal biotin on a linker: ado-ado)
T9 sequence (Q5T2W1 373-468, limits assumed, looked up): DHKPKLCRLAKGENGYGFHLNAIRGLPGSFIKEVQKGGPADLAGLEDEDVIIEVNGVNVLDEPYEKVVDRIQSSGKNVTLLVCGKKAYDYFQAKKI

Row | Binder | pKd
32 | GDHLDRRVVL [VAC14, Q08AM6] | below the threshold
33 | KSTTRSSSSC [NDE1, Q9NXR1;Q9NXR1-2] | below the threshold

molecular target: T10, PDZD7_3, Q9H5P4; assay: holdup assay; set-up: key: below the threshold = too weak to quantify, mostly under pKd 3.1 to 4; details: plain residues with an end cap or a label only (N-terminal biotin on a linker: ado-ado)
T10 sequence (Q9H5P4 857-944, limits assumed, looked up): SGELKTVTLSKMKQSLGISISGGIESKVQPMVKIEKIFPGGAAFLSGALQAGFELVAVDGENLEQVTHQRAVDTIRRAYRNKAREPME

Row | Binder | pKd
34 | GDHLDRRVVL [VAC14, Q08AM6] | 3.69

molecular target: MAST2, Q6P0Q8; assay: holdup assay; set-up: key: below the threshold = too weak to quantify, mostly under pKd 3.1 to 4; details: plain residues with an end cap or a label only (N-terminal biotin on a linker: ado-ado)
Sequence (Q6P0Q8 1099-1202): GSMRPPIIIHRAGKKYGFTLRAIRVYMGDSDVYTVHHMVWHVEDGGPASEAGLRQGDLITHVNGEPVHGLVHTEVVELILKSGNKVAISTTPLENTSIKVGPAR

Row | Binder | pKd
35 | GDHLDRRVVL [VAC14, Q08AM6] | 4.1
36 | KSTTRSSSSC [NDE1, Q9NXR1;Q9NXR1-2] | 4.06

molecular target: T11, LIN7B, Q9HAP6; assay: holdup assay; set-up: key: below the threshold = too weak to quantify, mostly under pKd 3.1 to 4; details: plain residues with an end cap or a label only (N-terminal biotin on a linker: ado-ado)
T11 sequence (Q9HAP6 88-185, limits assumed, looked up): T2 sequence (O14910 103-200, limits assumed, looked up) with S2A, V20I, I35V, E42D, H65Q, K77Q, D78G, K89R

Row | Binder | pKd
37 | GDHLDRRVVL [VAC14, Q08AM6] | below the threshold

molecular target: T12, MPDZ_10, O75970; assay: holdup assay; set-up: key: below the threshold = too weak to quantify, mostly under pKd 3.1 to 4; details: plain residues with an end cap or a label only (N-terminal biotin on a linker: ado-ado)
T12 sequence (O75970 1624-1722, limits assumed, looked up): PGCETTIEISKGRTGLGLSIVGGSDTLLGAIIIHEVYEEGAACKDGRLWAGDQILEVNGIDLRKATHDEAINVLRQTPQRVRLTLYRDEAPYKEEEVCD

Row | Binder | pKd
38 | GDHLDRRVVL [VAC14, Q08AM6] | 3.51
39 | KSTTRSSSSC [NDE1, Q9NXR1;Q9NXR1-2] | below the threshold

molecular target: FRMPD3, Q5JV73; assay: holdup assay; set-up: key: below the threshold = too weak to quantify, mostly under pKd 3.1 to 4; details: plain residues with an end cap or a label only (N-terminal biotin on a linker: ado-ado)
Sequence (Q5JV73 12-100): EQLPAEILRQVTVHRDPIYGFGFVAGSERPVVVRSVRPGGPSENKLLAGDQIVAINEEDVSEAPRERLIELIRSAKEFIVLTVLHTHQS

Row | Binder | pKd
40 | GDHLDRRVVL [VAC14, Q08AM6] | below the threshold
41 | KSTTRSSSSC [NDE1, Q9NXR1;Q9NXR1-2] | below the threshold

molecular target: T13, PDZRN3_1, Q9UPQ7; assay: holdup assay; set-up: key: below the threshold = too weak to quantify, mostly under pKd 3.1 to 4; details: plain residues with an end cap or a label only (N-terminal biotin on a linker: ado-ado)
T13 sequence (Q9UPQ7 244-349, limits assumed, looked up): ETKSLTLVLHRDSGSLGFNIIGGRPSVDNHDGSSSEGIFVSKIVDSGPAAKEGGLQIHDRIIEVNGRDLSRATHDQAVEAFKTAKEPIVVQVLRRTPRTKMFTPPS

Row | Binder | pKd
42 | GDHLDRRVVL [VAC14, Q08AM6] | below the threshold
43 | KSTTRSSSSC [NDE1, Q9NXR1;Q9NXR1-2] | below the threshold
